Substitutions are numbered along the chain they refer to. Non-standard residues stand in square brackets, D forms with d. No end group written: not given here. pGlu = O=C1CC[C@@H](C(=O)O)N1
What was measured:
CD3εδ heterodimer = target: T1, CD3εδ heterodimer (Homo sapiens (Human), UniProt P07766 22-126; P04234 22-100); test: SPR, Biacore T200; antibody captured on Protein G (CM3 chip), CD3εδ heterodimer as analyte, single cycle kinetics, 37 C
T1 construct: also called CD3ε8
Procedure: The activity of binding to the CD3εδ heterodimer was measured for: the rat anti-CD3 antibody containing as the variable region the heavy chain variable region (SEQ ID NO: 10) and the light chain variable region (SEQ ID NO: 11) described in Reference Example 1; a combination of a human anti-CD3 antibody and a rat anti-CD3 antibody which contains as the variable region a heavy chain variable region (SEQ ID NO: 12) and a light chain variable region (SEQ ID NO: 13) where the light chain has been humanized by a method known to those skilled in the art; a humanized anti-CD3 antibody which contains as the variable region a heavy chain variable region (SEQ ID NO: 12) and a light chain variable region (SEQ ID NO: 13), which have been humanized by a method known to those skilled in the art; and AN121 which contains as the variable region a heavy chain variable region (SEQ ID NO: 43) and a light chain variable region (SEQ ID NO: 13). The heavy chain variable regions were fused with F760mnP17 (SEQ ID NO: 39) used as the constant region and the light chain variable regions were fused with the Kappa chain (SEQ ID NO: 36) used as the constant region, and the antibodies were expressed according to the method of Reference Example 2.
The activity of binding to the CD3εδ heterodimer was assessed using BiacoreT200. Specifically, Protein G was immobilized onto a CM3 chip by a method known to those skilled in the art, and antibodies to be evaluated were bound to the immobilized Protein G. Then, the CD3εδ heterodimer prepared at 4000, 1000, 250, 62.5, 15.6, and 3.9 nM was bound thereto, and the binding was evaluated using the single cycle kinetics mode. Measurements were taken under conditions of 20 mM ACES, 150 mM NaCl, and pH7.4 at 37° C.

[1] = target: T2, synthetic peptide (epitope peptide) corresponding to the sequence from the N terminus to position 15 of CD3; test: X-ray crystal structure of the Fab with the epitope peptide
T2 construct: also called XDGNEEMGGITQTPY
T2 peptide: [pGlu]DGNEEMGGITQTPY
Procedure: Furthermore, a sample was prepared by adding, to the obtained anti-CD3 antibody Fab fragment, a synthetic peptide (epitope peptide) which corresponds to the sequence from the N terminus to position 15 of CD3 and shown in SEQ ID NO: 14 below: XDGNEEMGGITQTPY (X: L-pyroglutamic acid) (SEQ ID NO: 14) to become 2 mM. The vapor diffusion method was used to obtain crystals from the sample by allowing the sample to stand at 20° C. under reservoir conditions of 100 mM MES buffer at pH7.0, 0.91% PEG3350, and 1.0 M sodium citrate tribasic dihydrate. These crystals were subject to X-ray crystallography based on the above-mentioned crystal structure of the anti-CD3 antibody Fab fragment alone according to a method known to those skilled in the art to obtain the crystal structure of a complex of the anti-CD3 antibody Fab fragment and the epitope peptide from the diffraction intensity data at 25 to 3.5 angstrom resolution. Its crystallographic reliability factor R (R factor) and Free R value (R free) were 18.55% and 26.53%, respectively.

[2] = target: CD3 on NFAT-RE-luc2-Jurkat cells (human, UniProt P07766 23-207); test: cell-based or functional assay
CD3 on NFAT-RE-luc2-Jurkat cells, sequence (P07766 23-207): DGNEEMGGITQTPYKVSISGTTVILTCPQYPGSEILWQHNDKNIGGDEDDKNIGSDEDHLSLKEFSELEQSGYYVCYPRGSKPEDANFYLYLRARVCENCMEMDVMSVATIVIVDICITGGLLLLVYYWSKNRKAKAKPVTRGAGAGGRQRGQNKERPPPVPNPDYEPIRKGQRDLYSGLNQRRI

T1 sequence (P07766 other isoform, or with tags, fused parts or gaps mutant limits assumed, chain 1 of 2): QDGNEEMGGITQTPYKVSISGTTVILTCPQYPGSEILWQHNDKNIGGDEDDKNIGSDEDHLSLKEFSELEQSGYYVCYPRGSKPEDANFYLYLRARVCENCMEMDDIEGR
T1 sequence (P04234 other isoform, or with tags, fused parts or gaps mutant limits assumed, chain 2 of 2): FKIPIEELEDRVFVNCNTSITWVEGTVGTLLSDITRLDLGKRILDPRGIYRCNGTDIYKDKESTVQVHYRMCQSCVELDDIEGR

B1: CE115VH-F760mnP17/rCE115VL-k0 (Rat anti-CD3 antibody) (antibody, human IgG1, kappa, N297A, V domains shown)
VH: EVQLVETGGSLVQPGKSLKLTCATSGFTFSNAWMHWVRQSPEKQLEWVAQIKAKSNNYATYYAESVKGRFTISRDDSKSNIYLQMNSLKEEDTAVYYCRYVHYGAYYGVDAWGQGTSVTVSS
VL: DVVMTQTPVSMSVSLGGQVSISCRSSQSLVHNNGNTYVSWYIQKPSQSPQLLIYKVSNRFSGISDRFSGSGSGTDFTLKISRVEPDDLGVYYCGQGTQDPYTFGAGTKLELKR
In the case of B1, the Kd (CD3εδ heterodimer) is reported as 191 nM, the koff (CD3εδ heterodimer) is reported as 0.00771 s⁻¹ and the kon (CD3εδ heterodimer) is reported as 40400 M⁻¹ s⁻¹.

B2: Anti-CD3 antibody Fab fragment (humanized anti-CD3 antibody) (Fab, V domains shown)
VH: QVQLVESGGGVVQPGRSLRLSCAASGFTFSNAWMHWVRQAPGKGLEWVAQIKAKSNNYATYYAESVKGRFTISRDDSKNSLYLQMNSLKTEDTAVYYCRYVHYGAYYGVDAWGQGTTVTVSS
VL: DIVMTQSPLSLPVTPGEPASISCRSSQSLVHSNRNTYLHWYQQKPGQAPRLLIYKVSNRFSGVPDRFSGSGSGTDFTLKISRVEAEDVGVYYCGQGTQVPYTFGQGTKLEIKR
notes: Fab made by papain cleavage of a One-arm antibody
B2: binds [1].

B3: CE115VH-F760mnP17/GLS3000-k0 (Combination of rat anti-CD3 antibody and human anti-CD3 antibody) (antibody, human IgG1, kappa, N297A, V domains shown)
VH: B1 VH
VL: B2 VL
Work on B3 yielded a Kd (CD3εδ heterodimer) of 262 nM, a koff (CD3εδ heterodimer) of 0.0124 s⁻¹ and a kon (CD3εδ heterodimer) of 47300 M⁻¹ s⁻¹.

B4: AN121H-F760mnP17/GLS3000-k0 (AN121) (antibody, human IgG1, kappa, N297A, V domains shown)
VH: QVQLVESGGGLVQPGRSLRLSCAASGFTFSNAWMHWVRQAPGKGLEWVAQIKDKANGYNAYYAESVKGRFTISRDDSKNSIYLQMNSLKTEDTAVYYCRYVHYTTYAGFSYKFGVDAWGQGTTVTVSS
VL: B2 VL
B4 showed a Kd (CD3εδ heterodimer) of 9.68 nM, a koff (CD3εδ heterodimer) of 0.000723 s⁻¹ and a kon (CD3εδ heterodimer) of 74700 M⁻¹ s⁻¹.

B5: CE115HA000-F760mnP17/GLS3000-k0 (Humanized anti-CD3 antibody) (antibody, human IgG1, kappa, N297A, V domains shown)
VH: B2 VH
VL: B2 VL
B5 was tested, and the Kd (CD3εδ heterodimer) was 556 nM, the koff (CD3εδ heterodimer) was 0.0288 s⁻¹ and the kon (CD3εδ heterodimer) was 51800 M⁻¹ s⁻¹.

B6: hCE115HAuPA20L/GLS//GCH065 (bispecific antibody, human IgG1, kappa, N297A)
heavy 1: QDGNEEMGGITQTPYKVSISGGGGSGGGGSGGGGSLSGRSDNHGGGSQVQLVESGGGVVQPGRSLRLSCAASGFTFSNAWMHWVRQAPGKGLEWVAQIKAKSNNYATYYAESVKGRFTISRDDSKNSLYLQMNSLKTEDTAVYYCRYVHYGAYYGVDAWGQGTTVTVSSASTKGPSVFPLAPSSKSTSGGTAALGCLVKDYFPEPVTVSWNSGALTSGVHTFPAVLQSSGLYSLSSVVTVPSSSLGTQTYICNVNHKPSNTKVDKKVEPKSCDKTHTCPPCPAPELRGGPKVFLFPPKPKDTLMISRTPEVTCVVVDVSHEDPEVKFNWYVDGVEVHNAKTKPREEQYASTYRVVSVLTVLHQDWLNGKEYKCKVSNKALPAPIEKTISKAKGQPREPQVYTLPPSRKEMTKNQVSLTCLVKGFYPSDIAVEWESNGQPENNYKTTPPYLDSDGSFFLYSKLTVDKSRWQQGNVFSCSVMHEALHNHYTQKSLSLSP
light 1: DIVMTQSPLSLPVTPGEPASISCRSSQSLVHSNRNTYLHWYQQKPGQAPRLLIYKVSNRFSGVPDRFSGSGSGTDFTLKISRVEAEDVGVYYCGQGTQVPYTFGQGTKLEIKRTVAAPSVFIFPPSDEQLKSGTASVVCLLNNFYPREAKVQWKVDNALQSGNSQESVTEQDSKDSTYSLSSTLTLSKADYEKHKVYACEVTHQGLSSPVTKSFNRGEC
heavy 2: QVQLVQSGAEVKKPGASVTVSCKASGYTFTDYEMHWIRQPPGEGLEWIGAIDGPTPDTAYSEKFKGRVTLTADKSTSTAYMELSSLTSEDTAVYYCTRFYSYTYWGQGTLVTVSSASTKGPSVFPLAPSSKSTSGGTAALGCLVKDYFPEPVTVSWNSGALTSGVHTFPAVLQSSGLYSLSSVVTVPSSSLGTQTYICNVNHKPSNTKVDKKVEPKSCDKTHTCPPCPAPELRGGPKVFLFPPKPKDTLMISRTPEVTCVVVDVSHEDPEVKFNWYVDGVEVHNAKTKPREEQYASTYRVVSVLTVLHQDWLNGKEYKCKVSNKALPAPIEKTISKAKGQPREPQVYTLPPSREEMTKNQVSLTCLVKGFYPSDIAVEWESNGQPENNYKTTPPYLDSDGSFFLYSKLTVDKSRWQQGNVFSCSVMHEALHNHYTQESLSLSP
light 2: B6 light 1 with S28P
With B6 the “increase rate due to the protease treatment (luciferase, uPA-treated / untreated), antibody 0.1 nM” value [2] was 1.2 ratio and the “increase rate due to the protease treatment (luciferase, uPA-treated / untreated), antibody 1 nM” value [2] was 2.4 ratio.

B7: hCE115HAuPA04/GLS//GCH065 (bispecific antibody, human IgG1, kappa, N297A)
heavy 1: QDGNEEMGGGSGGGSGGGSLSGRSDNHGGGSQVQLVESGGGVVQPGRSLRLSCAASGFTFSNAWMHWVRQAPGKGLEWVAQIKAKSNNYATYYAESVKGRFTISRDDSKNSLYLQMNSLKTEDTAVYYCRYVHYGAYYGVDAWGQGTTVTVSSASTKGPSVFPLAPSSKSTSGGTAALGCLVKDYFPEPVTVSWNSGALTSGVHTFPAVLQSSGLYSLSSVVTVPSSSLGTQTYICNVNHKPSNTKVDKKVEPKSCDKTHTCPPCPAPELRGGPKVFLFPPKPKDTLMISRTPEVTCVVVDVSHEDPEVKFNWYVDGVEVHNAKTKPREEQYASTYRVVSVLTVLHQDWLNGKEYKCKVSNKALPAPIEKTISKAKGQPREPQVYTLPPSRKEMTKNQVSLTCLVKGFYPSDIAVEWESNGQPENNYKTTPPYLDSDGSFFLYSKLTVDKSRWQQGNVFSCSVMHEALHNHYTQKSLSLSP
light 1: B6 light 1
heavy 2: B6 heavy 2
light 2: B6 light 1 with S28P
B7 was tested, and the “increase rate due to the protease treatment (luciferase, uPA-treated / untreated), antibody 0.1 nM” value [2] was 1.3 ratio and the “increase rate due to the protease treatment (luciferase, uPA-treated / untreated), antibody 1 nM” value [2] was 6.3 ratio.

B8: ANuPA20L/GLS//GCH065 (bispecific antibody, human IgG1, kappa, N297A)
heavy 1: QDGNEEMGGITQTPYKVSISGGGGSGGGGSGGGGSLSGRSDNHGGGSQVQLVESGGGLVQPGRSLRLSCAASGFTFSNAWMHWVRQAPGKGLEWVAQIKDKANGYNAYYAESVKGRFTISRDDSKNSIYLQMNSLKTEDTAVYYCRYVHYTTYAGFSYKFGVDAWGQGTTVTVSSASTKGPSVFPLAPSSKSTSGGTAALGCLVKDYFPEPVTVSWNSGALTSGVHTFPAVLQSSGLYSLSSVVTVPSSSLGTQTYICNVNHKPSNTKVDKKVEPKSCDKTHTCPPCPAPELRGGPKVFLFPPKPKDTLMISRTPEVTCVVVDVSHEDPEVKFNWYVDGVEVHNAKTKPREEQYASTYRVVSVLTVLHQDWLNGKEYKCKVSNKALPAPIEKTISKAKGQPREPQVYTLPPSRKEMTKNQVSLTCLVKGFYPSDIAVEWESNGQPENNYKTTPPYLDSDGSFFLYSKLTVDKSRWQQGNVFSCSVMHEALHNHYTQKSLSLSP
light 1: B6 light 1
heavy 2: B6 heavy 2
light 2: B6 light 1 with S28P
In the case of B8, the “increase rate due to the protease treatment (luciferase, uPA-treated / untreated), antibody 0.1 nM” value [2] is reported as 1 ratio and the “increase rate due to the protease treatment (luciferase, uPA-treated / untreated), antibody 1 nM” value [2] is reported as 1.7 ratio.

B9: hCE115HAuPA20/GLS//GCH065 (bispecific antibody, human IgG1, kappa, N297A)
heavy 1: QDGNEEMGGITQTPYKVSISLSGRSDNHGGGSQVQLVESGGGVVQPGRSLRLSCAASGFTFSNAWMHWVRQAPGKGLEWVAQIKAKSNNYATYYAESVKGRFTISRDDSKNSLYLQMNSLKTEDTAVYYCRYVHYGAYYGVDAWGQGTTVTVSSASTKGPSVFPLAPSSKSTSGGTAALGCLVKDYFPEPVTVSWNSGALTSGVHTFPAVLQSSGLYSLSSVVTVPSSSLGTQTYICNVNHKPSNTKVDKKVEPKSCDKTHTCPPCPAPELRGGPKVFLFPPKPKDTLMISRTPEVTCVVVDVSHEDPEVKFNWYVDGVEVHNAKTKPREEQYASTYRVVSVLTVLHQDWLNGKEYKCKVSNKALPAPIEKTISKAKGQPREPQVYTLPPSRKEMTKNQVSLTCLVKGFYPSDIAVEWESNGQPENNYKTTPPYLDSDGSFFLYSKLTVDKSRWQQGNVFSCSVMHEALHNHYTQKSLSLSP
light 1: B6 light 1
heavy 2: B6 heavy 2
light 2: B6 light 1 with S28P
B9 was tested, and the “increase rate due to the protease treatment (luciferase, uPA-treated / untreated), antibody 0.1 nM” value [2] was 1.1 ratio and the “increase rate due to the protease treatment (luciferase, uPA-treated / untreated), antibody 1 nM” value [2] was 2.4 ratio.

Reference: patent publication US20220401557A1 (Chugai, published 2022)
